Measured values as given in article PMC2115152 (The Journal of Cell Biology, 1988).

Molecular target: F-actin (rabbit, UniProt P68135 1-377)
Assay: co-sedimentation

B1: 83-kD nonmuscle caldesmon (natural protein)
chain: MLSRSGSQGRRCLATLSQIAYQRNDDDEEEAARERRRRARQERLRQKQEEESLGQVTDQVEAHVQNSAPDEESKPATANAQVEGDEEAALLERLARREERRQKRLQEALERQKEFDPTITDGSLSVPSRRMQNNSAENETAEGEEKGESRSGRYEMEETEVVITSYQKNSYQDAEDKKKEEKEEEEEEEKLKGGNLGENQIKDEKIKKDKEPKEEVKNFLDRKKGFTEVKAQNGEFMTHKLKQTENAFSPSRSGGRASGDKEAEGAPQVEAGKRLEELRRRRGETESEEFEKLKQKQQEAALELEELKKKREERRKVLEEEEQRRKQEEADRKAREEEEKRRLKEEIERRRAEAAEKRQKMPEDGLSEDKKPFKCFTPKGSSLKIEERAEFLNKSVQKSGVKSTHQAAVVSKIDSRLEQYTNAIEGTKASKPMKPAASDLPVPAEGVRNIKSMWEKGSVFSSPSASGTPNKETAGLKVGVSSRINEWLTKSPDGNKSPAPKPSDLRPGDVSGKRNLWEKQSVDKVTSPTKV
  stoichiometry N: ~6 actin monomers per 83-kD protein
